From IntAct's records for PubMed 24034254

B1: Proto-oncogene tyrosine-protein kinase LCK (Mus musculus), P06240 (parent)
chain: MGCVCSSNPEDDWMENIDVCENCHYPIVPLDSKISLPIRNGSEVRDPLVTYEGSLPPASPLQDNLVIALHSYEPSHDGDLGFEKGEQLRILEQSGEWWKAQSLTTGQEGFIPFNFVAKANSLEPEPWFFKNLSRKDAERQLLAPGNTHGSFLIRESESTAGSFSLSVRDFDQNQGEVVKHYKIRNLDNGGFYISPRITFPGLHDLVRHYTNASDGLCTKLSRPCQTQKPQKPWWEDEWEVPRETLKLVERLGAGQFGEVWMGYYNGHTKVAVKSLKQGSMSPDAFLAEANLMKQLQHPRLVRLYAVVTQEPIYIITEYMENGSLVDFLKTPSGIKLNVNKLLDMAAQIAEGMAFIEEQNYIHRDLRAANILVSDTLSCKIADFGLARLIEDNEYTAREGAKFPIKWTAPEAINYGTFTIKSDVWSFGILLTEIVTHGRIPYPGMTNPEVIQNLERGYRMVRPDNCPEELYHLMMLCWKERPEDRPTFDYLRSVLDDFFTATEGQYQPQP

Variants of: B1
Settings: with cd4_mouse Cd4, P06332
Chain of cd4_mouse Cd4, P06332 (P06332 whole entry): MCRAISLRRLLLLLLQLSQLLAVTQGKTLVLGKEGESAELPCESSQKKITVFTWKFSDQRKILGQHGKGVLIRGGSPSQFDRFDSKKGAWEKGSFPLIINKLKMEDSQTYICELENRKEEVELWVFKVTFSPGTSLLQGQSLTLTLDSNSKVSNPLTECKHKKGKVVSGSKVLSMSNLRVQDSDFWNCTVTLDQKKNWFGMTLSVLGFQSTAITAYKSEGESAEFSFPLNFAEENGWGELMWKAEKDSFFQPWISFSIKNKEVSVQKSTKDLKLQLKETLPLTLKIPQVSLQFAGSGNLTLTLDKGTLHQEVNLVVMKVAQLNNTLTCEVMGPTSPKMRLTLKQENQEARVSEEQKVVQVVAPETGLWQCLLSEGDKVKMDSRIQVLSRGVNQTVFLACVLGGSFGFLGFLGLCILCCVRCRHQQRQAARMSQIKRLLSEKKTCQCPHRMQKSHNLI
With C20A;C23A the “effect of a mutation on the interaction” value was “disrupting interaction strength”.

Variants of: B1
Settings: with cd8a_mouse Cd8a
With C20A;C23A the “effect of a mutation on the interaction” value was “disrupting interaction strength”.
